Test: soluble on expression in E. coli; label from the status in PepcDB or PDB records

Sequence	soluble on expression in E. coli
MTEDGVMKIDASTSTIKEPEPADCVILPTHTNEQVVYYKSWIAFGDNPNYLTYNRDLGYADWYGIVDCSDSPPTGPGVYKAFIYVNDLNYQESGNPLFKVTGRLKFLANKDTSDTMMKLEIFEQNRLEELRLSPKKMSDSQVIAIILFDNEETNSAICYSEQLESSIKVHLPVGSPAKAGQLILFTEYNYENDTYFPDPRPDAIEYRECEMTRIENGELLISAKAACSSIETHITYPQSVAFADTFGKVNVAAESMERGVTYRVELAINIIDSEANNVPLFKISDIGEKLTGEENEAFLRKLNDFEELQGTWEDWTPEEIAVELEPVAAAEEPADPEVEEAKIEENGVNDESLTQSESDSVFLPQIESSASSEETMSESNSAENSEKPKKTFGRMPQSLSESSSSTISSSKVGVDHSVIVLNVDNDECVGFETTQLKLMTICTAGVTVPLRPYGIFQFIAAGNNYGKTSIQTQSARVSECEGAVFSSDDVPKISANVIFSSNPKHKSYNKEVGVSDRYGFVEIPRITGDFEFGTVYSTQITMVQYGDPLKACFKAVAPLKRQFIDDLDHYLQVMGKYEDNIYQLSRKNGLGAKSISRLPNEPRNGSKHGSTKRFTTPHVTGLVVDMEKRGNYFGCVWTCFGDVVFKSTPTFSQNGGYPSVGDLVNIRVEILSPGTKDQKNLGASMTEKPASLSTTVIWRNNGFIVKAYLIMKPEKLIYSEDNNRFYEHDQLGIVVADSSIYGSDNEQSKVFEFERLRNPITLGFTTNLMNKCYWAARLPMIHREPSPPEPINKYNDENVYDDFQKGGPQSVNSYRSDRQYQEKPPMQYQSYHDPADTISIHSQDNHRPMETRSNAGTSVSSVDRKEVGVVMKKVDKNTQIVYLSGQKAAAIHHWNTHSQSTIVGNSYIFMYRPIEVHKATHYAPFEITQVVEILNTENHGRVDRSEFSSLFTFDLCNVDQRYVERLAFGEALVLRSNDVGHVVMASNVKTPLNPSMTAVEVCQTYKGKRESENLVGYCRLVYGKVPREIVDGHFSDQFVSAYYFELHEILATSNAYIVRNENLDRRNLRGNTIEEVRDDISIQKRIAHMNFGQNEQQQQQSSLSSRGPTRPYSPVGSYQSSHQNFDNRSAAHNGDGRSTSQSHHSAGGSMNHQNFYQPPVYQSSSSQQSYQPRYNGAPSGPLPPPSSQSSFNGAPAPPHYSEMSNDYNRMVRKLAELTDTAAQMIINNDIRQQIKNISPDLLDDLERNIDACQREKRHYYEKYGN	not soluble
MDVNTASQSTTDEQMMDILLVLDKEKKTISAVKGVDENGELQTVPPENNSELLKFDRHGDFFSNFFSNMMNQLKNPTRFNFFKIPKIELPKIEPIIRDNFNHPTPENEAGIERYRVTPETVKQEAKKEQQETQAQQPQQPAKEAGAMAQTPQQPDKSKYVIDPDKVDWEALKNFGLSKEQLEKAKALEPMLRGYKSPGAFTIAGNYNSAIMKLDARLSFRHDKDGNVVLAIHGIRQKPELERPFFGHEFSKEDKANLLETGNMGRIVNLKNYITGEMIPSFVSVDKVTNELVSMRASSVQIPDEIKGVKLNKEQKQALREGKGVFLENMISNRKNPFSATVQVNADKKSLEFIYPNAKQSQEQGQKQTQQNSLVTSDGVTIPKSISGIELSRQQQQDLVNDKTIFVAGLKDKRGVEYDAYIQVNHDKKKLGFYSDNPSFDRSAVKEITPASKNRTQVAVNSEGKTNEATKKVKEPLKKGQDKPTEKQKTKQDKKEKQEQTDKPKQSRGRKR	not soluble
MNTCRGQHGPRRPEAGAAGHRAHVDGGQRGPGGQQEPDWHKAGATIPRLPSPSGSPWRREQDPAPGEPPHIPAHGNRPGGQEIRPRIPGLDREARPAVPPTHSPSYRIRLAGSEPSLVQAAPGQAVQLFCPGNIPPEFQAGWQKEGRPISSNRYQLQADGSLIISRLRPEDAGIYSCGSHRPGHEPQEIQLRVTGGDMAVLPEGQPRHFPEPRNPDLGHGPPHRGTGAEAGGHRVLSPSHPRPATRLRLDRTQPGVVDASPGQRIRLTCRAEGFPVPTIEWQRDGQLVSSPRHQVQPDGSLVISRVDVEDGGYYSCVAFNGQDRDQRWVQLRVLRELTITGLPPAVTVAEGDTARLLCVVAGESVNIRWSRNGLPIQADGHRVHQSPDGTLLIHNLRPRDEGSYTCSAFRGSQAVSRSTEVKVALPAPAAQSRDLGKDCIDQPELANCALILQAQLCGNEYYSSFCCASCSRFQPNAQPVWQQG	soluble
MGSDKIHHHHHHKETSEKPVLFPDYADVTIPYNIAPLNFKIENPHAEAFAVLKFGEEKIQVKEKGGQFYLPASDWRKLLKRATGKAIQVKLYAKDKEWLAYPEFSLFVAPEPMDSYLAYRLIEPGYELWNQMGIYQRNLEDYKQSPIMENKYSGQNCMNCHSFCMQNPDKMLFHMRDKYSGTYLIDGDKIEKLNTKTDQTISPLVYPSWHPSGKYVAFSVNQTSQSFHANDKNRVEVFDSQSDVVVYDTEKHEIISTPSIRTAKAFETFPTFSPDGKTLYFCSAEARSMPHEYSEVKYNLCSIAFDPVTRSFGSRIDTLYNAGKDGKSASFPRVSPDGKFLLYTLSGYGNFSIWHKDADLYLLDIASGISHSLQNANSTDTESYHSWSSNSRWIVFSSRRIDGLYTRPYFAYIDEEGNASKPFLLPQKDTDYYHRFMKSYNIPEFITGKVSSKIRALSTLAKEDKGIDVTYRK	not soluble
MGHHHHHHSHMGEIESYCNKELGPLPTKAPTLSKNVLDLFSLKGKVASVTGSSGGIGWAVAEAYAQAGADVAIWYNSHPADEKAEHLQKTYGVHSKAYKCNISDPKSVEETISQQEKDFGTIDVFVANAGVTWTQGPEIDVDNYDSWNKIISVDLNGVYYCSHNIGKIFKKNGKGSLIITSSISGKIVNIPQLQAPYNTAKAACTHLAKSLAIEWAPFARVNTISPGYIDTDITDFASKDMKAKWWQLTPLGREGLTQELVGGYLYLASNASTFTTGSDVVIDGGYTCP	not soluble
MSRGGKGGDGDTRGGGGENGNQNNKGGNDEGGNEIEVPSMEELDGLADKIADEFVSQGMKIYQTLDPETRPYPDEYREGLRSQVEELPEKFKEFYTPGPGEFTAKLDLIDELTRKLDTQAGDFNTGEISGHVHDAMDNMGEWEGALSISFRKGYLDPLYEGIIPNHGRVLALLHDNFQAMRDIYAEGRKSLKKIGEDGLSAMEQADDVDGAAVVTALTVLAAAFGLGFAGLAAVPGIATAAGVAGAAVAGGLAVASDQAPEPEEIPLAGSSAEDVLVNIYDALSKLEDDILTKEAELIDTILRGCDETLELVGDTTENSMLVPKMPDLVGTALDDYHQISEGLNQFD	not soluble
TSDTPALLYIHGLNSSAQSKKACQLIALMKSLGLADRLQVPELHHHPRQAMLQLESAIGALGRPLLVGSSLGGYYATHLAQRHGLKAVLINPAVNPHQLFDGFLGMQQNLYTGEQWQLTEDHIKALAELEVPAPQDPQQFQVWLQTGDETLDYRRAEKFYRACALRIQAGGDHSFQGFAERLPALLSFAGFAPDLLQ	not soluble
MMGEPARLRRLTAEEYLREEATSPVKRELVEGVPYAMAGAGRAHNLIVTNLVLLLGPLARRKGCRLYVADMKLKVGEATFYYPDLMAVCAPPPESPLYEEAPCLVVEVLSPATEGVDRREKLWRYLSLPSLEGYLLVSARERRVELYRKEGDILHQVAEEGEVPLPCLEGSLPVAEVYAGVELEGQEA	soluble
TQKPSLYRVLILNDDYTPMEFVVYVLERFFNKSREDATRIMLHVHQNGVGVCGVYTYEVAETKVAQVIDSARRHQHPLQCTMEKD	soluble
MQKTLSAIFLFTTLSANAAPYIGLELGIGTANHSFETNYQSDAVSLNPNMEDMFLGGLIGYKFNDNFSFEINYSSYKLEDQYSKFIGIESLNNQQYRKEHEWSSEIEAKQLALISVYSYPIHQQLKTNIKVGVTHTQYEAYSGKYEELELLLNDDIEIRKALLETGLKKNRFGALFSLGLDYNLIPELSVGTELRYQFDKYNDVLSISLNSKYYF	not soluble
GELFIKELLWMLRHQKDIFNNLARQFQKEVLCPNKCGVMSQTLIWCLKCEKQLHICRKSLDCGERHIEVHRSEDLVLDCLLSWHRASKGLTDYSFYRVWENSSETLIAKGKEPYLTKSMVGPEDAGNYRCVLDTINQGHATVIRYDVTVLPPKHSEENQPP	not soluble
MKKALQVAMFSLFTVIGFNAQANEHHHETMSEAQPQVISATGVVKGIDLESKKITIHHDPIAAVNWPEMTMRFTITPQTKMSEIKTGDKVAFNFVQQGNLSLLQDIKVSQ	soluble
MGSDKIHHHHHHMKCPTETLPMMRCNQILDAAERLIESQGIVSFKFSQLAKEVGCSTGTLYKFFERKEDVLVCLFLRSATSNHLPIFIDKHPELSELEKVLLPVLFTFETISRSKSFFTLRSVSVNTMVWQLASDEKVERFKKRINAFWGWFTDSLHAAVEQGELQATPLQIKELVQGLTFYLTGSLTQFESQLIAPEYLSNRRETCYRHLAKLMGQYKWNQALTPELFDSLEARTKAFFDQHYRDHMTCAACSALSGVNLKDRPACVRQAYQ	not soluble
MWFKNLTLYRFNKPFSIETEALETALADFTFSPCGSQDVSKFGFSNALGKKGSTLVHSANNRHLICVTKEEKILPAQVIKESLEEKVAQIEDEENRKLAKKEKDALKDEIITSLLPRAFSRRSQTRALILPELEMILVDSSSATKAEELLALLRKALGSLPVIPLSFKAPIESQLTEWLKNGSAPLPFEMQDEAELKSAADEGGIVRFKQQDLKEDEVLAHLETGKEVHKLALHFGQSIALLLQSDASVKRLKFSEEFRAGNDELGNEDPMARLDADFALMGSELVALMHALVSALGGIEETQA	soluble
LQASVNLFPTISVAPSADTSSERSIYKARFLENVAAAETEKQVALAQGRAETLAGAMPNEAGGHPDARQLWDSPETAPAARTPQSPAPCVLLRAQRSLAPEPKEPLIPASPKAEPIWELPTRAPRLSIGDLDFSDLGEDEDQDMLNVESVEAGKDI	not soluble
MPKYYCDYCDTFLTHDSPSVRKTHNGGRKHKDNVRMFYQKWMEDQAQKLVDQTARAFATNRMQGAVPRTTMGMAPVPPVGHHPMMGGPPGMPMMAPRPFPGPGVGFPGAPGMPPFPGGPMGMAGPPGMPPMMPRPPQQFRPM	not soluble
MTKVSVVGAAGTVGAAAGYNIALRDIADEVVFVDIPDKEDDTVGQAADTNHGIAYDSNTRVRQGGYEDTAGSDVVVITAGIPRQPGQTRIDLAGDNAPIMEDIQSSLDEHNDDYISLTTSNPVDLLNRHLYEAGDRSREQVIGFGGRLDSARFRYVLSEEFDAPVQNVEGTILGEHGDAQVPVFSKVSVDGTDPEFSGDEKEQLLGDLQESAMDVIERKGATEWGPARGVAHMVEAILHDTGEVLPASVKLEGEFGHEDTAFGVPVSLGSNGVEEIVEWDLDDYEQDLMADAAEKLSDQYDKIS	soluble
MGSSHHHHHHSSGLVPRGSTYKLTLIRHGESEWNKENRFTGWTDVSLSEQGVSEAIEAGRMLLEKGFKFDVVYTSVLKRAIMTTWTVLKELGNINCPIINHWRLNERHYGALQGLNKSETASKFGEDQVKIWRRSFDVPPPVLEKSDPRWPGNELIYKGICPSCLPTTECLKDTVERVKPYFEDVIAPSIMSGKSVLVSAHGNSLRALLYLLEGMTPEQILEVNIPTACPLVLELDDYLKVTKKYYLISEEELKAKMEAVANQGKAK	soluble
MGSDKIHHHHHHVNYPKVYTSEQACPINLVGETGQAVQISIHAPSQYICANCERILPDWKRQSFLRVVIVLQQSRYQLVKKTTEVESEKERLREKFMRFGCDLAFNLRDRGYLTDLIDPRTGYPLLSHPGAIPHDDTAVVKALLNYPVIKNQCRVLVHPEWGAAVYPSILISEAPPILIEWVTKGIAAMHGWKEISH	not soluble
MTTRKPFIICDFDGTITMNDNIINIMKTFAPPEWMALKDGVLSKTLSIKEGVGRMFGLLPSSLKEEITSFVLEDAKIREGFREFVAFINEHEIPFYVISGGMDFFVYPLLEGIVEKDRIYCNHASFDNDYIHIDWPHSCKGTCSNQCGCCKPSVIHELSEPNQYIIMIGDSVTDVEAAKLSDLCFARDYLLNECREQNLNHLPYQDFYEIRKEIENVKEVQEWLQNKNAGESSLKLEHHHHHH	soluble

From the DeepSol protein solubility set
